Experiment: PK study E3826-U1704 in naïve C57BL/6 mice (human IL-2 ELISA of plasma)
Format: in vivo
Method: Terminal blood samples were collected via cardiac puncture at the points indicated. […] Plasma and blood cells (in both studies) and tumors in study E3826-U1803 were collected for PK and PD analyses.
Bioanalysis of plasma samples was performed using a qualified human IL-2 ELISA assay (Abcam, Cambridge, UK). Concentrations of Aldesleukin, E62_30kD and P65_30kD and the internal standard in samples derived from plasma were determined using an ELISA assay. […] The PK data were imported into Phoenix WinNonlin v6.4 (Certara/Pharsight, Princeton, N.J.) for analysis. The group mean plasma concentration versus time data were analyzed with noncompartmental methods using an IV bolus administration model.

[1] = C57BL/6 female mice, single IV bolus 0.3 mg/kg, E62_5 kD from a separate study

P65_30kD: SEQ ID NO: 25: IL-2 (SEQ ID NO: 4) with P65 replaced by AzK click-conjugated to methoxy linear 30 kDa PEG [Compound P65_30kD]
fold extended t1/2 compared to aldesleukin (0.3 mg/kg IV): 23 fold
fold reduced CL compared to aldesleukin (0.3 mg/kg IV): about 198 fold
AUC0-t [1]: 45,600 h*ng/mL
AUCINF [1]: 45,600 h*ng/mL
CL [1]: 0.11 mL/min/kg
Cmax [1]: 4,870 ng/mL
Tmax [1]: 1.8 min
Vss (distribution volume) [1]: 0.0824 L/kg
t½ [1]: 13.3 h
mean plasma concentrations measurable out to (post-dose) (single IV bolus, 120 h = last measured time point): 120 h

Source: patent US20210046160A1 (Synthorx, Inc., priority 2019, published 2021)
